T1: core protein gp15 (bacteriophage T7, UniProt P03725 1-747)
T1 construct: core protein gp15 of bacteriophage T7, as it stands in the mature virion; Eight-fold ring in the core of mature T7; source: T7 virions propagated in E. coli, purified (PEG precipitation, CsCl ultracentrifugation)
T1 sequence (looked up): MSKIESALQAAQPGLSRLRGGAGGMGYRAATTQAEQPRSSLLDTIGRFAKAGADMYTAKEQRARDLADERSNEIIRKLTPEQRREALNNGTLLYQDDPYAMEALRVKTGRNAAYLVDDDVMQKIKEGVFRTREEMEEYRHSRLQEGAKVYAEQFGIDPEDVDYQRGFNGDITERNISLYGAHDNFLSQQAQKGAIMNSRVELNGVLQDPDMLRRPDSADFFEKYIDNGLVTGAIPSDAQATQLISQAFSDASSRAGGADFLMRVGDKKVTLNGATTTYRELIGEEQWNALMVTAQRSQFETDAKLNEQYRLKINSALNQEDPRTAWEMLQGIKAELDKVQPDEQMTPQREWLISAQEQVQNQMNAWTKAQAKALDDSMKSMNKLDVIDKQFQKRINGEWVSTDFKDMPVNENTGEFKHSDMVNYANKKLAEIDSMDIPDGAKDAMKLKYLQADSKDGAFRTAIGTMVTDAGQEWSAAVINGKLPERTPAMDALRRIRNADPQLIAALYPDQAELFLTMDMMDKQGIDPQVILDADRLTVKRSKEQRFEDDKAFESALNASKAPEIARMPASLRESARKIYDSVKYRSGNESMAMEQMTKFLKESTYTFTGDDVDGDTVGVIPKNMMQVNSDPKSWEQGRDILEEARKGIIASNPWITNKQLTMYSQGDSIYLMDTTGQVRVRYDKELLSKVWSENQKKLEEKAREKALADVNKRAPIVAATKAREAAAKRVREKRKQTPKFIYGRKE

B1: portal protein gp8 (natural protein, bacteriophage T7, UniProt P03728 1-536, looked up)
chain: MAEKRTGLAEDGAKSVYERLKNDRAPYETRAQNCAQYTIPSLFPKDSDNASTDYQTPWQAVGARGLNNLASKLMLALFPMQTWMRLTISEYEAKQLLSDPDGLAKVDEGLSMVERIIMNYIESNSYRVTLFEALKQLVVAGNVLLYLPEPEGSNYNPMKLYRLSSYVVQRDAFGNVLQMVTRDQIAFGALPEDIRKAVEGQGGEKKADETIDVYTHIYLDEDSGEYLRYEEVEGMEVQGSDGTYPKEACPYIPIRMVRLDGESYGRSYIEEYLGDLRSLENLQEAIVKMSMISSKVIGLVNPAGITQPRRLTKAQTGDFVTGRPEDISFLQLEKQADFTVAKAVSDAIEARLSFAFMLNSAVQRTGERVTAEEIRYVASELEDTLGGVYSILSQELQLPLVRVLLKQLQATQQIPELPKEAVEPTISTGLEAIGRGQDLDKLERCVTAWAALAPMRDDPDINLAMIKLRIANAIGIDTSGILLTEEQKQQKMAQQSMQMGMDNGAAALAQGMAAQATASPEAMAAAADSVGLQPGI
notes: portal protein gp8 of bacteriophage T7, as it stands in the virion; Native virion protein; also called dodecameric portal; source: T7 virions propagated in E. coli, purified (PEG precipitation, CsCl ultracentrifugation); copies: 12
B2: nozzle protein gp12 (natural protein, bacteriophage T7, UniProt P03747 1-794, looked up)
chain: MALISQSIKNLKGGISQQPDILRYPDQGSRQVNGWSSETEGLQKRPPLVFLNTLGDNGALGQAPYIHLINRDEHEQYYAVFTGSGIRVFDLSGNEKQVRYPNGSNYIKTANPRNDLRMVTVADYTFIVNRNVVAQKNTKSVNLPNYNPNQDGLINVRGGQYGRELIVHINGKDVAKYKIPDGSQPEHVNNTDAQWLAEELAKQMRTNLSDWTVNVGQGFIHVTAPSGQQIDSFTTKDGYADQLINPVTHYAQSFSKLPPNAPNGYMVKIVGDASKSADQYYVRYDAERKVWTETLGWNTEDQVLWETMPHALVRAADGNFDFKWLEWSPKSCGDVDTNPWPSFVGSSINDVFFFRNRLGFLSGENIILSRTAKYFNFYPASIANLSDDDPIDVAVSTNRIAILKYAVPFSEELLIWSDEAQFVLTASGTLTSKSVELNLTTQFDVQDRARPFGIGRNVYFASPRSSFTSIHRYYAVQDVSSVKNAEDITSHVPNYIPNGVFSICGSGTENFCSVLSHGDPSKIFMYKFLYLNEELRQQSWSHWDFGENVQVLACQSISSDMYVILRNEFNTFLARISFTKNAIDLQGEPYRAFMDMKIRYTIPSGTYNDDTFTTSIHIPTIYGANFGRGKITVLEPDGKITVFEQPTAGWNSDPWLRLSGNLEGRMVYIGFNINFVYEFSKFLIKQTADDGSTSTEDIGRLQLRRAWVNYENSGTFDIYVENQSSNWKYTMAGARLGSNTLRAGRLNLGTGQYRFPVVGNAKFNTVYILSDETTPLNIIGCGWEGNYLRRSSGI
notes: nozzle protein gp12 of bacteriophage T7, as it stands in the virion; Native virion protein; also called tail nozzle; source: T7 virions propagated in E. coli, purified (PEG precipitation, CsCl ultracentrifugation)

What was measured:
[1] = target: the molecule itself; assay: cryo-EM structure; mature T7 virions, in situ; entire particle asymmetric 6.1 Å; local reconstructions of core complex 3 Å (four-fold), portal 2.5 Å (twelve-fold), portal–tail complex 2.7 Å (six-fold)
core protein gp15 = target: T1, core protein gp15; assay: as above; conditions: both partners purified
portal protein gp8 = target: B1; assay: as above; conditions: both partners purified
[2] = target: the molecule itself; assay: cryo-EM structure; DNA-ejected T7: purified mature T7 incubated with rough LPS (250 µg/mL) at 37°C for 3 h; entire particle asymmetric 8.2 Å; portal–tail complex 3.5 Å (six-fold)
nozzle protein gp12 = target: B2; assay: as above; conditions: both partners purified

Binder	stoichiometry N [1]	binding result (core protein gp15)	binding result (portal protein gp8)	stoichiometry N [2]	binding result (nozzle protein gp12)
fiber protein gp17 (natural protein, bacteriophage T7, UniProt P03748 1-553, looked up, tail fiber protein gp17 of bacteriophage T7, as it stands in the virion; Six trimeric fibers on the virion; also called tail fiber; source: T7 virions propagated in E. coli, purified (PEG precipitation, CsCl ultracentrifugation)) MANVIKTVLTYQLDGSNRDFNIPFEYLARKFVVVTLIGVDRKVLTINTDYRFATRTTISLTKAWGPADGYTTIELRRVTSTTDRLVDFTDGSILRAYDLNVAQIQTMHVAEEARDLTTDTIGVNNDGHLDARGRRIVNLANAVDDRDAVPFGQLKTMNQNSWQARNEALQFRNEAETFRNQAEGFKNESSTNATNTKQWRDETKGFRDEAKRFKNTAGQYATSAGNSASAAHQSEVNAENSATASANSAHLAEQQADRAEREADKLENYNGLAGAIDKVDGTNVYWKGNIHANGRLYMTTNGFDCGQYQQFFGGVTNRYSVMEWGDENGWLMYVQRREWTTAIGGNIQLVVNGQIITQGGAMTGQLKLQNGHVLQLESASDKAHYILSKDGNRNNWYIGRGSDNNNDCTFHSYVHGTTLTLKQDYAVVNKHFHVGQAVVATDGNIQGTKWGGKWLDAYLRDSFVAKSKAWTQVWSGSAGGGVSVTVSQDLRFRNIWIKCANNSWNFFRTGPDGIYFIASDGGWLRFQIHSNGLGFKNIADSRSVPNAIMVENE	3				
core protein gp14 (natural protein, bacteriophage T7, UniProt P03724 1-196, looked up, core protein gp14 of bacteriophage T7, 196 residues as printed; modelled residues 4-86 and 101-129 in mature T7, 25-143 in DNA-ejected T7; Eight copies resolved in the mature virion, six copies in the extended channel of DNA-ejected T7; source: T7 virions propagated in E. coli, purified (PEG precipitation, CsCl ultracentrifugation)) MCWAAAIPIAISGAQAISGQNAQAKMIAAQTAAGRRQAMEIMRQTNIQNADLSLQARSKLEEASAELTSQNMQKVQAIGSIRAAIGESMLEGSSMDRIKRVTEGQFIREANMVTENYRRDYQAIFAQQLGGTQSAASQIDEIYKSEQKQKSKLQMVLDPLAIMGSSAASAYASGAFDSKSTTKAPIVAAKGTKTGR		binds	binds	6	binds
B1	12				
B2				6	

Reference: PMC11784390, “Conformational changes in and translocation of small proteins: insights into the ejection mechanism of podophages” (Journal of Virology, 2024)
